Test results from patent US8629107B2, “Genes and proteins associated with angiogenesis and uses thereof” (National Jewish Health, priority 2005, dated 2014).

Target: T1, Notch1 (Mus musculus, UniProt Q01705)
T1 construct: expressed in transfected cells; host or cells: human kidney 293T cells, transient transfection (LT-1 liposomes)
Experiment: Notch1 processing assay in human kidney 293T cells
Format: cell-based
Details: 293T cells co-transfected with Notch1, vs cells solely expressing Notch1; anti-Myc immunoblot
Procedure: To monitor the effects of MAGP-2 on the processing and S3 cleavage of Notch1, human kidney 293T cells were transiently transfected in 6-well plates with LT-1 liposomes containing 0.5 μg/well of Notch1 (pCS2+mN1FL6MT), 0.5 μg/well Jagged-1 (pCS2+Jag1-6MT), or 1.5 μg/well of MAGP-2 (pcDNA3.1-MAGP-2/Myc-His) in all combinations. Forty-eight h post-transfection, the cells were washed with ice-cold PBS, lysed immediately in Buffer H/1% Triton X-100 [500 μl/well; (Schiemann et al, 2002)], and incubated on ice for 30 min. Afterward, insoluble material was removed by microcentrifugation and 100 μl of the resulting clarified extract was fractionated through 6% SDS-PAGE gels. The fractionated proteins were transferred electrophoretically to nitrocellulose and probed with anti-Myc 9E10 monoclonal antibodies (Covance, Princeton, N.J.) to visual Notch1 cleavage species.
Activation of Notch1 signaling involves three proteolytic processing events, termed S1, S2, and S3, that produce three distinct Notch1 fragments, termed TMIC, NEXT, and NICD, respectively (Mumm et al, 2000). […] The inventors tested this possibility by transiently transfecting human 293T cells with cDNAs encoding Myc-tagged versions of Notch1, Jagged-1, and MAGP-2 in all combinations, and subsequently monitored changes in NICD production and accumulation by immunoblot analyses using anti-Myc monoclonal antibodies. […]

T1 sequence (Q01705 19-2531): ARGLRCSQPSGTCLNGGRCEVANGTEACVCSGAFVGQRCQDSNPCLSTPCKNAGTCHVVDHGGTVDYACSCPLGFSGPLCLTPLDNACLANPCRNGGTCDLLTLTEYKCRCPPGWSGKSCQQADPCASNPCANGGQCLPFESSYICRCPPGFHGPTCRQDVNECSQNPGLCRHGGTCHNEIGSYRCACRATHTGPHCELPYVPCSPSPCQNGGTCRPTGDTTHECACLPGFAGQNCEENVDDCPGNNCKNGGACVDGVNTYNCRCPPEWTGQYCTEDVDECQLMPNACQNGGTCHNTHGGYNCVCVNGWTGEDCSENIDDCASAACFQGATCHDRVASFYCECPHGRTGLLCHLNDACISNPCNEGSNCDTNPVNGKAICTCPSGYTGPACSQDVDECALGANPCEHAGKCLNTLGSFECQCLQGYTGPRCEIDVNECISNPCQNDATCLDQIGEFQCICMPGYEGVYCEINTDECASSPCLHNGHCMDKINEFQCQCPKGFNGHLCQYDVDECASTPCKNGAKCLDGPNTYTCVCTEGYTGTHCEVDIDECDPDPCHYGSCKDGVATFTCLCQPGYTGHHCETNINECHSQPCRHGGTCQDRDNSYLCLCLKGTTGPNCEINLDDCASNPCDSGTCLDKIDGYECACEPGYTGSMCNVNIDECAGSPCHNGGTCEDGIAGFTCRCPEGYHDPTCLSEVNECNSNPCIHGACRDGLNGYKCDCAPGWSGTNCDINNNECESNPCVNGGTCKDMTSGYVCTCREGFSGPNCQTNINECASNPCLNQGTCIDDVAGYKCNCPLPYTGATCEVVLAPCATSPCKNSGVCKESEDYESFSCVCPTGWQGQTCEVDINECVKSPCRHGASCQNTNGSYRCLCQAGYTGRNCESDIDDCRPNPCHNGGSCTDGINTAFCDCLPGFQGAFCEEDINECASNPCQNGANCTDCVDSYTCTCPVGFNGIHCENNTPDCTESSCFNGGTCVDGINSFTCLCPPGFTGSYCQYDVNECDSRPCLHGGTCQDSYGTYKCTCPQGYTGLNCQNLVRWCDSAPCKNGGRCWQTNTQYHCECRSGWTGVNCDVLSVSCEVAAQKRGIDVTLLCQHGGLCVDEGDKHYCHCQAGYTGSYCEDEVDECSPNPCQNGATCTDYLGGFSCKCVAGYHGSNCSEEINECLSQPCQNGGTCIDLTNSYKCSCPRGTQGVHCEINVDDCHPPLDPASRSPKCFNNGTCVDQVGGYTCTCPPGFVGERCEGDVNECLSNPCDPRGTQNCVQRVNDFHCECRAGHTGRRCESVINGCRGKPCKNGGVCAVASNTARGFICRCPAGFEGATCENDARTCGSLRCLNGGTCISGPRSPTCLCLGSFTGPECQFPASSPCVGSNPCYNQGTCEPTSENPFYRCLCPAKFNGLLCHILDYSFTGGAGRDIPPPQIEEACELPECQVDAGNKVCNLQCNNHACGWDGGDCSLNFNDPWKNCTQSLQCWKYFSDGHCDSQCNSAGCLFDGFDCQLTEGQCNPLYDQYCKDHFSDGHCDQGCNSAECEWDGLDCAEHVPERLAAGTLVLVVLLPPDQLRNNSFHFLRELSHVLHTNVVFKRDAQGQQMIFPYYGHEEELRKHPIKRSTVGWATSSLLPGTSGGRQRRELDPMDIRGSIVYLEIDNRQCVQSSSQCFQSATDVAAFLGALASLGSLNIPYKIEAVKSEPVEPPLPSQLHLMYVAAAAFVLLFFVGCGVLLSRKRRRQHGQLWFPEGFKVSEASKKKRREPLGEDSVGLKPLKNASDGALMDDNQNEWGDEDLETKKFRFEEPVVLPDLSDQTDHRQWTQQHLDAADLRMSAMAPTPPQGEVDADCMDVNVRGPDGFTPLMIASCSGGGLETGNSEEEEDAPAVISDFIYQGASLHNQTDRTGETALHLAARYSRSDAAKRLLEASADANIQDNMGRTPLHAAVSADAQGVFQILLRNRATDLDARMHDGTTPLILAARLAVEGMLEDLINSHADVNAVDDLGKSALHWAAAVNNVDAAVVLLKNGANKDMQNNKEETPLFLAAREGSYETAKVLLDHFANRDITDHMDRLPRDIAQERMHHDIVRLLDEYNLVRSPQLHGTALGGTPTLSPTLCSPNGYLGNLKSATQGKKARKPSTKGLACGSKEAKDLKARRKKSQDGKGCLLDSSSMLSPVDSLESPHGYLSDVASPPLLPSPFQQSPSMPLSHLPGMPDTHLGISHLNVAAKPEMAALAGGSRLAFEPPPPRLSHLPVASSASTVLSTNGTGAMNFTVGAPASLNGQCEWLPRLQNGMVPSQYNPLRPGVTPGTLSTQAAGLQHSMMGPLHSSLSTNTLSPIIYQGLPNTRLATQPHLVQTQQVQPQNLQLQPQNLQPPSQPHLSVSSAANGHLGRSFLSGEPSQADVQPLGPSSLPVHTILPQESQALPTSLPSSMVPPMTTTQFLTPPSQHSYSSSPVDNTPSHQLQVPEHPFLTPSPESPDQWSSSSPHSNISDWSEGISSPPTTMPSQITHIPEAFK

Notch1 processing and production of NICD: significantly enhanced
B1: Jagged-1: Notch1 ligand; Myc-tagged murine Jagged-1 cDNA transiently transfected (protein)
chain: QFELEILSMQNVNGELQNGNCCGGVRNPGDRKCTRDECDTYFKVCLKEYQSRVTAGGPCSFGSGSTPVIGGNTFNLKASRGNDRNRIVLPFSFAWPRSYTLLVEAWDSSNDTIQPDSIIEKASHSGMINPSRQWQTLKQNTGIAHFEYQIRVTCDDHYYGFGCNKFCRPRDDFFGHYACDQNGNKTCMEGWMGPDCNKAICRQGCSPKHGSCKLPGDCRCQYGWQGLYCDKCIPHPGCVHGTCNEPWQCLCETNWGGQLCDKDLNYCGTHQPCLNRGTCSNTGPDKYQCSCPEGYSGPNCEIAEHACLSDPCHNRGSCKETSSGFECECSPGWTGPTCSTNIDDCSPNNCSHGGTCQDLVNGFKCVCPPQWTGKTCQLDANECEAKPCVNARSCKNLIASYYCDCLPGWMGQNCDININDCLGQCQNDASCRDLVNGYRCICPPGYAGDHCERDIDECASNPCLNGGHCQNEINRFQCLCPTGFSGNLCQLDIDYCEPNPCQNGAQCYNRASDYFCKCPEDYEGKNCSHLKDHCRTTTCEVIDSCTVAMASNDTPEGVRYISSNVCGPHGKCKSQSGGKFTCDCNKGFTGTYCHENINDCESNPCKNGGTCIDGVNSYKCICSDGWEGAHCENNINDCSQNPCHYGGTCRDLVNDFYCDCKNGWKGKTCHSRDSQCDEATCNNGGTCYDEVDTFKCMCPGGWEGTTCNIARNSSCLPNPCHNGGTCVVNGDSFTCVCKEGWEGPICTQNTNDCSPHPCYNSGTCVDGDNWYRCECAPGFAGPDCRININECQSSPCAFGATCVDEINGYQCICPPGHSGAKCHEVSGRSCITMGRVILDGAKWDDDCNTCQCLNGRVACSKVWCGPRPCRLHKSHNECPSGQSCIPVLDDQCFVRPCTGVGECRSSSLQPVKTKCTSDSYYQDNCANITFTFNKEMMSPGLTTEHICSELRNLNILKNVSAEYSIYIACEPSLSANNEIHVAISAEDIRDDGNPVKEITDKIIDLVSKRDGNSSLIAAVAEVRVQRRPLKNRTDFLVPLLSSVLTVAWVCCLVTAFYWCVRKRRKPSSHTHSAPEDNTTNNVREQLNQIKNPIEKHGANTVPIKDYENKNSKMSKIRTHNSEVEEDDMDKHQQKVRFAKQPVYTLVDREEKAPSGTPTKHPNWTNKQDNRDLESAQSLNRMEYIV
modifications: left off: small tags and cut ends
notes: Notch1 ligand; Myc-tagged murine Jagged-1 cDNA transiently transfected
